Laboratory results published in paper PMC8245513, “Recapitulation of selective nuclear import and export with a perfectly repeated 12mer GLFG peptide” (Nature Communications, 2021).

B1: NES(PKI)-EGFP (other)
chain: SNELALKLAGLDIN
modifications: PKI-type NES core with short flanks, mEGFP carrier left out; the exact construct (PKI01, pTG-A450) is not printed and may be an optimised NES variant
B2: prf.GLFG_(52x12) (other)
chain: GGLFGGNTQPATGGLFGGNTQPATGGLFGGNTQPATGGLFGGNTQPATGGLFGGNTQPATGGLFGGNTQPATGGLFGGNTQPATGGLFGGNTQPATGGLFGGNTQPATGGLFGGNTQPATGGLFGGNTQPATGGLFGGNTQPATGGLFGGNTQPATGGLFGGNTQPATGGLFGGNTQPATGGLFGGNTQPATGGLFGGNTQPATGGLFGGNTQPATGGLFGGNTQPATGGLFGGNTQPATGGLFGGNTQPATGGLFGGNTQPATGGLFGGNTQPATGGLFGGNTQPATGGLFGGNTQPATGGLFGGNTQPATGGLFGGNTQPATGGLFGGNTQPATGGLFGGNTQPATGGLFGGNTQPATGGLFGGNTQPATGGLFGGNTQPATGGLFGGNTQPATGGLFGGNTQPATGGLFGGNTQPATGGLFGGNTQPATGGLFGGNTQPATGGLFGGNTQPATGGLFGGNTQPATGGLFGGNTQPATGGLFGGNTQPATGGLFGGNTQPATGGLFGGNTQPATGGLFGGNTQPATGGLFGGNTQPATGGLFGGNTQPATGGLFGGNTQPATGGLFGGNTQPATGGLFGGNTQPATGGLFGGNTQPATGGLFGGNTQPATGGLFGGNTQPATC
notes: C-terminal Cys residue fused for maleimide labelling; also called GLEBS-free, perfectly repeated FG variant; ultimately simplified FG domain

Tests used:
[1] = target: T1, human Exportin 1 (human, UniProt O14980 1-1071); experiment: NTR-dependent recruitment of a fluorescent cargo into FG phase particles (confocal laser-scanning microscopy); prf.GLFG_(52x12) phase challenged with import cargo (IBB-EGFP; IBB-MBP-GFP-M9) or export cargo (NES-EGFP + RanQ69L) in the absence or presence of the corresponding NTRs (Impβ, transportin, Xpo1); conditions: both partners purified
T1 construct: Exportin 1 (Xpo1/CRM1), human; also called hsXpo1; Xpo1; source: bacterial expression construct, purified (native Ni(II) chelate chromatography)
T1 sequence (O14980 whole entry): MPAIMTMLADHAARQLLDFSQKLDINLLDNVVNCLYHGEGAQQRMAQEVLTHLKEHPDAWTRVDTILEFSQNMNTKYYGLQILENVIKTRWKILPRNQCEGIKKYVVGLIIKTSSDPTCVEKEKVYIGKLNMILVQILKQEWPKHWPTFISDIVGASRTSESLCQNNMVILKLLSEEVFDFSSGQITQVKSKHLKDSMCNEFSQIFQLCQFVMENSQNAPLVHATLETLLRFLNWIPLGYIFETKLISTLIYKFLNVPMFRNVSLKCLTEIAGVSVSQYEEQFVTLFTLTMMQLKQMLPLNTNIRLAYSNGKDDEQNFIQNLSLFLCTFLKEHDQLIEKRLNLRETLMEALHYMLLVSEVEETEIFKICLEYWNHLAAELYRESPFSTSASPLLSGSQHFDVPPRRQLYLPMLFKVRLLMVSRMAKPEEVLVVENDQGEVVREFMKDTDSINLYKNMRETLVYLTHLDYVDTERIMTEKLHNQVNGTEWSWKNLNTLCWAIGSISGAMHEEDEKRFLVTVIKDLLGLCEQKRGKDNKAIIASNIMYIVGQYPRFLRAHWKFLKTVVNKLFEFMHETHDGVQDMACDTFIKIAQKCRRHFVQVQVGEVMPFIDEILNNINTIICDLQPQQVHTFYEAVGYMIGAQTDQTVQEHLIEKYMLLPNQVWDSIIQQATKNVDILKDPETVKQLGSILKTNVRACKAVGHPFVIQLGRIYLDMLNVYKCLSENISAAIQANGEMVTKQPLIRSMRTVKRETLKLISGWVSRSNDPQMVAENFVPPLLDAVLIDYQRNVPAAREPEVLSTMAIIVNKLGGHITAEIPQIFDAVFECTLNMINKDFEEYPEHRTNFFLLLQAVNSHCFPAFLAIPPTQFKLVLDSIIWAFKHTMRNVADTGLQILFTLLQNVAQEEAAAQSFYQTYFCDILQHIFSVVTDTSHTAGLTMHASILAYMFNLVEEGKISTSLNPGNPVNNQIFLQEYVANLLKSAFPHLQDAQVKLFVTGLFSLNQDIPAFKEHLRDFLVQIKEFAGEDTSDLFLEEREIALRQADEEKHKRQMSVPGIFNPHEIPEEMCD

[2] = target: T2, Alexa Fluor 488-labeled rat NTF2 (rat, UniProt P61972 1-127, Alexa Fluor 488 label (site not stated)); experiment: partitioning into FG phase particles (FG particle permeation assay, confocal laser-scanning microscopy); FG domain diluted out of 4 M guanidinium hydrochloride into 50 mM Tris/HCl pH 7.5, 150 mM NaCl, 5 mM DTT, 5 µM FG domain; fluorescent probe in the buffer (mCherry 5 µM, probes with partition coefficient ≥2 at 0.75 µM); particles sedimented 60 min; ratio of fluorescence inside to outside the particles; 21 °C; conditions: both partners purified
T2 construct: nuclear transport factor 2 (NTF2), rat, 30-kDa nuclear transport receptor (dimer); The methods say that most NTRs were His-tagged fusions whose tags were cleaved off; also called Alexa488-labeled NTF2; source: bacterial expression construct, purified (native Ni(II) chelate chromatography)
T2 sequence (P61972 whole entry, the tested form may be a part): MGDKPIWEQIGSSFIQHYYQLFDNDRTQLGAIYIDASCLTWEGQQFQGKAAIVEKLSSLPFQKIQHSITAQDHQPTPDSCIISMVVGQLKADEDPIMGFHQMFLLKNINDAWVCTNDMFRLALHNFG

| Binder | fold stimulation of the cargo's entry into the prf.GLFG_(52x12) phase by Xpo1 (with RanQ69L) [1] [fold] | binding result [2] |
| --- | --- | --- |
| B1 | 3500 |  |
| B2 |  | binds |
